{"source": "paper PMC5095149", "about": "“Molecular cloning, heterologous expression, and enzymatic characterization of lysoplasmalogen‐specific phospholipase D from Thermocrispum sp” (FEBS Open Bio, 2016)", "molecules": {"B1": {"name": "LyPls-PLD (rLyPls-PLD) (Thermocrispum sp. RD004668) (protein)", "chain": "TTRTTDNPWLDARVLNMAHAGGENEAPANTLYAFKRAVKLGANMLELDVQSTKDDQLVVIHNATVDQTTDGTGKVRDLTFEQVHELDAAYNFIPGRHAVPGEPPESYPLRGVRTGEKKPPPGYQPSDFAIPKLADVLEAFPRTPINIEIKGTSDADIPSFLHNAKLLARLLKKTGRTDFIVTSFNDLAVAKFHLLAPDIPIAPGMAGLAAYFLLGVKPMHGTVALQIPVRYQGLEIATPEFIRRAHADGYAVHVWFSGTAPDDEATYNRIIDSCADGLMPAYPALLERILDERGIERPGRPGVDPCG", "notes": "pET24a(+), E. coli SHuffle T7, HisTrap purified; kinetics calculated as monomer"}, "B2": {"name": "LyPls-PLD (rLyPls-PLD) (Thermocrispum sp. RD004668; F211A) (protein)", "chain": "B1 chain with F184A", "notes": "as for B1"}}, "key": {"LyPls-PLD (rLyPls-PLD)": {"target": "T1, LyPls-PLD (rLyPls-PLD) (Thermocrispum sp. RD004668, UniProt A0A0U4VTN7)", "T1 construct": "gene lyspls; pET24a(+), E. coli SHuffle T7, HisTrap purified; kinetics calculated as monomer", "assay": "inhibition of LyPlsCho hydrolysis, choline oxidase/peroxidase colorimetric assay", "type": "biochemical", "conditions": "read-out: Relative activity (%) ^a", "excerpt": "inhibition of LyPlsCho hydrolysis, choline oxidase/peroxidase colorimetric assay on LyPls-PLD (rLyPls-PLD)"}, "purified protein": {"substrate": "CCCCCCCCCCCCCCCC/C=C\\OC[C@@H](O)COP(=O)(O)OCCN", "assay": "purified protein", "conditions": "80 mM Tris/HCl pH 8.0, 50 °C"}, "[1]": {"substrate": "CCCCCCCCCCCCCCCC/C=C\\OC[C@@H](O)COP(=O)([O-])OCC[N+](C)(C)C", "assay": "choline release, choline oxidase/peroxidase colorimetric assay; nonlinear Michaelis-Menten fit", "type": "biochemical, Thermocrispum sp. RD004668", "conditions": "80 mM Tris/HCl pH 8.0, 50 °C, 2 mM CaCl2, 30 s", "excerpt": "choline release, choline oxidase/peroxidase colorimetric assay; nonlinear Michaelis-Menten fit on LyPls-PLD (rLyPls-PLD)"}, "[2]": {"substrate": "CCCCCCCCCCCCCCCC/C=C\\OC[C@@H](O)COP(=O)([O-])OCC[N+](C)(C)C", "assay": "choline release, choline oxidase/peroxidase colorimetric assay; Hanes-Woolf plot", "type": "biochemical, Thermocrispum sp. RD004668", "conditions": "80 mM Tris/HCl pH 8.0, 50 °C, 2 mM CaCl2", "excerpt": "choline release, choline oxidase/peroxidase colorimetric assay; Hanes-Woolf plot on LyPls-PLD (rLyPls-PLD)"}}, "note": "Substitutions are numbered along the chain they refer to. Numbers in names are those of the source.", "data": [{"molecule": "CCCCCCCCCCCCCCCC(=O)OC[C@@H](O)COP(=O)([O-])OCC[N+](C)(C)C", "note": "[LPC, 1‐palmitoyl‐2‐hydroxy‐sn‐glycero‐3‐phosphocholine]", "values": [{"measurement": "activity at 4000 µM", "setting": "LyPls-PLD (rLyPls-PLD)", "value": "60.7 ± 0.5", "unit": "%"}]}, {"molecule": "CCCCCCCCCCCCCCCCCC(=O)OC[C@@H](O)COP(=O)(O)O", "note": "[LPA, 1‐stearoyl‐2‐hydroxy‐sn‐glycero‐3‐phosphate]", "values": [{"measurement": "activity at 4000 µM", "setting": "LyPls-PLD (rLyPls-PLD)", "value": "89.8 ± 0.3", "unit": "%"}]}, {"molecule": "B1", "values": [{"measurement": "Km", "setting": "purified protein; 2 mM CaCl2, 3 min", "value": 456, "unit": "µM"}, {"measurement": "kcat", "setting": "purified protein; 2 mM CaCl2, 3 min", "value": 4.51, "unit": "s⁻¹"}, {"measurement": "kcat/Km", "setting": "purified protein; 2 mM CaCl2, 3 min", "value": 9900, "unit": "M⁻¹ s⁻¹"}, {"measurement": "Km", "setting": "[1]", "value": 13.2, "unit": "µM"}, {"measurement": "kcat", "setting": "[1]", "value": 70.6, "unit": "s⁻¹"}, {"measurement": "kcat/Km", "setting": "[1]", "value": "5.34e+06", "unit": "M⁻¹ s⁻¹"}]}, {"molecule": "B2", "values": [{"measurement": "Km", "setting": "purified protein; 2 mM CaCl2", "value": 281, "unit": "µM"}, {"measurement": "kcat", "setting": "purified protein; 2 mM CaCl2", "value": 2.88, "unit": "s⁻¹"}, {"measurement": "kcat/Km", "setting": "purified protein; 2 mM CaCl2", "value": 10300, "unit": "M⁻¹ s⁻¹"}, {"measurement": "Km", "setting": "[2]", "value": 112, "unit": "µM"}, {"measurement": "kcat", "setting": "[2]", "value": 24.8, "unit": "s⁻¹"}, {"measurement": "kcat/Km", "setting": "[2]", "value": 221000, "unit": "M⁻¹ s⁻¹"}]}]}
